In patent US20080200416A1 (Stanford University, published 2008):

Biological target: T1, SHP-2 (mouse, UniProt P35235 2-593, limits assumed)
T1 construct: Endogenous protein probed in anti-Lck immunoprecipitates; also called tyrosine phosphatase SHP-2
T1 sequence (looked up): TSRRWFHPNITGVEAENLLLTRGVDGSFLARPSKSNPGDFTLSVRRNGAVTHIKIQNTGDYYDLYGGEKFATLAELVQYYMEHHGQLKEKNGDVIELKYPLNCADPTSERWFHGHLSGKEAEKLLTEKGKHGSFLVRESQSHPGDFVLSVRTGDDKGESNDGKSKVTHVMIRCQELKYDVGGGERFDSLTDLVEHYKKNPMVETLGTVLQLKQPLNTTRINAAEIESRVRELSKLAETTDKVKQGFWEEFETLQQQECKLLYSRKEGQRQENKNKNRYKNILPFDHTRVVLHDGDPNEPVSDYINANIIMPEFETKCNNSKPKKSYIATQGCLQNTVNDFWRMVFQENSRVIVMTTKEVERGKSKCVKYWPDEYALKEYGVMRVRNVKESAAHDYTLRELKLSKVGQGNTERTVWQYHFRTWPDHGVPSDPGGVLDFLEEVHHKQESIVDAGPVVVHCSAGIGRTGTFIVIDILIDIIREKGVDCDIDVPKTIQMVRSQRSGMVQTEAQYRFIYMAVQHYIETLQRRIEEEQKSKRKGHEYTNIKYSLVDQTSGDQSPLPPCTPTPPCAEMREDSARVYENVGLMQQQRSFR
Assay: co-immunoprecipitation with anti-Lck from 5C.C7 T cell lysates, Western blot
Procedure: (A) Western blot analyses of anti-Lck immuno-precipitates to detect site-specific phosphorylation. Phosphorylation of Lck at the activating Y394 or inhibitory Y505 before antigen stimulation were probed with specific antibodies. […] Membranes were stripped and re-probed for Lck as loading controls. (B) Induction of ERK phosphorylation by the antagonist MCC 99R. Virally-infected T cells were mixed with CH27 cells alone or CH27 cells preloaded with 10 μM MCC 99R, spun down to facilitate rapid T:APC contact, incubated at 37° C. for 5 minutes, and analyzed for ERK phosphorylation by Phosphor-Flow. Cells were gated on GFP and CD4 for virally-infected T cells. […] (D) Western blot analyses of anti-Lck immuno-precipitates to detect Lck serine phosphorylation before antigen stimulation. […] Double selected 5C.C7 T cells were mixed with peptide pre-loaded CH27 cells (10 μM MCC 99R or 1 μM MCC) by quick spin and incubated at 37° C. for 5 mins. SHP-1 was co-precipitated with Lck whereas SHP-2 was undetectable under the same condition.

B1: Lck (enzyme, mouse, UniProt P06240 2-509, looked up)
chain: GCVCSSNPEDDWMENIDVCENCHYPIVPLDSKISLPIRNGSEVRDPLVTYEGSLPPASPLQDNLVIALHSYEPSHDGDLGFEKGEQLRILEQSGEWWKAQSLTTGQEGFIPFNFVAKANSLEPEPWFFKNLSRKDAERQLLAPGNTHGSFLIRESESTAGSFSLSVRDFDQNQGEVVKHYKIRNLDNGGFYISPRITFPGLHDLVRHYTNASDGLCTKLSRPCQTQKPQKPWWEDEWEVPRETLKLVERLGAGQFGEVWMGYYNGHTKVAVKSLKQGSMSPDAFLAEANLMKQLQHPRLVRLYAVVTQEPIYIITEYMENGSLVDFLKTPSGIKLNVNKLLDMAAQIAEGMAFIEEQNYIHRDLRAANILVSDTLSCKIADFGLARLIEDNEYTAREGAKFPIKWTAPEAINYGTFTIKSDVWSFGILLTEIVTHGRIPYPGMTNPEVIQNLERGYRMVRPDNCPEELYHLMMLCWKERPEDRPTFDYLRSVLDDFFTATEGQYQPQP
notes: Endogenous protein in T cell lysates; the phosphorylation state varies with the condition
- binding result: no binding
